Assay results taken from the nanobody polyreactivity screen of Harvey et al. (2022).

Assay: yeast display, Sf9 membrane polyspecificity reagent, FACS + sequencing; frameworks hold sequencing errors
Method in brief: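 A nanobody's polyreactivity label depends on the gate it was sorted from. Yeast display cells were stained with 10% biotinylated, detergent-solubilized Sf9 membrane reagent for 1 hour at 4 °C, enriched on streptavidin microbeads and sorted by FACS. The low and high (top ~1%) gates were set on anti-HA fluorescence for expression and streptavidin fluorescence for reagent binding.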

Row | Sequence | polyreactivity (PSR sort gate)
1 | QVQLVESGGGLVQAGGSLRLSCAASGRTFPTNAMGWYRQAPGKERELVARISTRGGSTYYADSVKGRFTISRDNAKNTVYLQMNSLKPEDTAVYYCAARYQGNYRTDKYDYWGQGTQVTVSS | high polyreactivity
2 | QVQLVESGGGLDQAGGSLRLSCAAYGGTLYYNAMGWYRQAPGKEREFVAAISSRGGRTYYADSVKGRFTISRDNAKNTVYLQMNSLKPEDTAVYYCAGSRTGRTYPSNRMYYWGQGTQVSVSS | high polyreactivity
3 | QVQLVETGGGLVQAGGSLRLSCAASGSIFTNYVMGWYRQAPGKERELVAAINWSGGSTYYADSVKGRFTISRDNAKNTVYLQMNSLKQEDTAVYFCASESFSDGSPYNYWGQGPQVTVSS | low polyreactivity
4 | QVQLVESGGGLVQAGGSLRLSCAASGFTFGYYAMGWYRQAPGKERELVAAISWSGSSTYYSDSVKGRFTISRDNAKNTVYLQMNSLKPEATAVYYCAAELGDAYYYWGQGTQVTVSS | high polyreactivity
5 | QVQLVESGGGLVQAGGSLRFSCAASGRTFVWYTMGWYRQAPGKERELVAAISSGGSTSYADSVKGRFTISRDNAKNTVYLQMNSLKPEDTAVYYCNAVWYVRYSGMDYWGQGTQVTVSS | high polyreactivity
6 | QVQLVESGGGLVQAGGSLRLSCAASGFTFYPYAMGWYRQAPGKERELVAGITRGGSTNYADSVKGRFTISRDNAKNTVYLQMNSLKPEDTAVYYCAAKYGPYFRRLDYWGQGTQVTVSS | high polyreactivity
7 | QVQLVESGGGLVQAGGSLRLSCAASGRIFVIYAMGWYRQAPGKERELVAVINDDGSTNYADSVKGRFTISRDNAKNTVYLQMNSLKPEDSAVYYCNAVYYSYRYGHDYWGQGTQVTVSS | low polyreactivity
8 | QVQLVESGGGLVQAGGSIRLSCAASGRIFRYYHMGWYRQAPGKERELVARISSTGRTYADSVKGRFTISRDNAKNSVYLQMYSLKPEDTAVYFCAALFHTRGHSKYDYWGQGTQVTVSS | high polyreactivity
9 | QVQLVESGGGLVQAGGSLRLSCAASGSTFPPNAMGWYRQAPGKERELVADSSDSSTYYADSVKGRFTISRDNAKNTVYLQMNSLKPEDNAVYYCAAADAGLRSKSYGQQYDYWGQGTQVTVSS | low polyreactivity
10 | QVQLVESGGGLVQAGGSLGLSCAASGIIFQANAMGWYRQAPGKERELVAGISRGSSTNYADSVKGRFTISRDNEKNTVYLQMNILKPEDTAVYYCASDRGYGRISRNYYWGQGTQVTVSS | low polyreactivity
11 | QVQLVESGGGLVQAGGSLRLSCAASGRIFQTYDMGWYRQAPGKERELVARIRLSGGSTYYADSVKGRFTISRDNAKNTVYLQMNSLKPEETAVYYCAARYSRALFTDPYYYWGQGTQVTVSS | high polyreactivity
12 | QVQLVESGGGLVQAGGSLRLSCAASGSTFRNYAMGWYRQAPGKERELVAAITKRGGTTYYADSVKGRFTISRDNAKNTVYLQMNSLKPEDTAVYYCATRQLSKVKDMDYWGQGTQVTVSS | high polyreactivity
13 | QVQLRESGAGGRQPAPELRCERQYFYWSADGLVSQPPGKEREFVAGIDRGTITNYADSVRGRFTISRDNAKNTVYLQMNSLKPEDTAVYYCNAEYRRRPKLGDEDEYWGHGTQVTVSS | high polyreactivity
14 | QVQLVESGGGLVQAGGSLRLICAASGSTFGANAMGWYRQAPGKEREFVAAISGSGTTTYYADSVKGRFTISRDNAKNTVYLQMNSLKPEDTPVYYCAKTRKAHWLEYWGQGTQVTVSS | low polyreactivity
15 | QVQLVESGGGLVQAGGSLRLSCAASGRTFQHYVMGWYRQAPGKERELVDSITNDDSTNYADSVKGRFTISRDNAKITVYLQMNRLKPEDTAVYYCNFDDWGTPVEPGDYDYWGQGTQVTVSS | low polyreactivity
16 | QVQLVESGGGLVQAGGSLRLSCAASGRIFDRYAMGWYRQAPGKERELVASITSSGGNTYYADSVKGRFTISRDNAKNTVYLQMNSLKPEDTAVYYCAKPQRVWQYGNYYYWGQGTQVTVSS | high polyreactivity
17 | QVQLVESGGGLVQAGGSLRLSCAASGFTFRRYVMGWYRQAPGKERELVAAISQRGGSTYYADSVKGRFTISRDNAKNTVYLQMNSLKPEDTAVYYCNIDYAGELDYWGQGTQVTVSS | high polyreactivity
18 | QVQLVESGGGLVQAGGSLRLSCAASGRTFLPNAMGWYRQAPGKERELVAVITSGGSTNYADSVKGRFTISRDNAKNTVYLQMNSLKPEDTAVYYCAARRWSSSQGHWGKSAGYGYWGQGTQVTVSS | low polyreactivity
19 | QVQLVESGGGLVQAGGSLRLSCAASGRIYCKYAMGRYRQAPGKERELVAGISRGAGRTYYADSVKGRFTISRDNAKNTVYLQMNSLKPADTAVSYCAAVPSYHSTSPFYYWGQGTQVTVSS | high polyreactivity
20 | QVQLVESGGGLVQAGGSLRLSCAASGSTFRYYAMGRYRQAPGKERELVAVISTSGNTYYADSVKGRFTISRDNAKNTVYLQMNSLKPEDTAGYYCAAGGVGGQISQEYDYWGQGTQVTVSS | low polyreactivity
21 | QVQLVESGGGLVQAGGSLRLSCAASGSNFTVYAMGWYRQAPGKDGELVAAISYNGGCTYYADSVKGRFTISRDNAKNTVYLQMNSLKPEDTAVYYCAARYRDRGRRAEYEYWGQGTQVTVSS | high polyreactivity
22 | QVQLVESGGGLVQAGGSLRLSCAASGFIIKFYAMGWYRQAPGKERELVATITFSSGTTYYADSVKGRFTISRDNAKNTVYLQMNSLKPEDTAVYYCAASTLPAWPYDGPAGPRYDYWGQGTQVTVSS | low polyreactivity

Row | Sequence | polyreactivity (PSR sort gate)
23 | QVQLVESGGGLFQAGGILRLSCAASGYTFPDYAMGWYRQAPGKEREFVATISWSGTSTYYADSVKGRFTISRDNAKNTVYLQMNSLTTEDTAVYYCNKTPSSWPDLYSYNYWGQGTQVTVSS | low polyreactivity
24 | QVQLVESGGGLVQAGGSLRLSCAASGRIFRPYAMGWYRQAPGKERELVASINYSGGSTYADSVKGRFTISRDNAKNTVYLQMNSLKPEDTAVYYCNVYRDGFRYTAWYTGQTFDYWGQGTQVTVSS | low polyreactivity
25 | QVQLVESGGGLVQAGGSLRLSCAASGITFAYYAMGWYRQAPGKERELVAAITRGGSTFYADSVKGRFTISRDNAKNTVYLQMNSLKPEDTAVYYCAKRYGTNTRYYHPYRYDYWGQGTQVTVSS | high polyreactivity
26 | QVQLVESGGGLVQAGGSLRLSCAASGFTFAHNAMGWYRQAPGKERELLAAISSRGGRTFYADSVKGRFTISRDNAKNTVYLQMNSLKPEDTAVYYCNRVRSVTPSPRYYYWGQGTQVTVSS | high polyreactivity
27 | QVQLVESGGGLVQAGGSLRLSCAASGGTLYLYAMGWYRQAPGKERELVAAISYNGGSTYAESVKGRFTISRDNAKNTVYLQKNSLKPEDTAVYYCAADRSPRGLGGYWGQGTQVTVSS | low polyreactivity
28 | QVQLVESGGGLVQAGGSLRLSCAASGNTFNLYAMGWYRQAPGKERELVASMTSGGGTNYADSVKGRFTISRDNAKNTVYLQMNSLKPEDTAFFYCAATDWFSEYYWGQGTQVTVSS | low polyreactivity
29 | QVHLVESWGGLVQAGGSLRLICAASGSTFYANAMGWYRQAPGKERQLVAAITRSRRSTYYADSVKGRFTISRDNAKNTVYLQMNSLKRVDTAVYYFSARRVRDRVRYDYCGQGTQVTVSS | high polyreactivity
30 | QVQLVESGGGLVQAGGSLRLICDASGIIFFPYAMGWYRQAPGKEREFVAAIRATGDNTYYADSVKGRFTISRDNAKNTVYLQMNSLKPEDTAVYYCAADRGTYQVDYWGQGTQVTVSS | low polyreactivity
31 | QVQLVESGGGLVQAGGSLRLSCAASVSIFRKNAMGWYRQAPGKERELVAAITYRTGSTYYADSVKGRFTISRDNAKNTVYLQMNSLKPEDTAVYYCAAQTWGSGYGHIGRRRHDYWGQGTQVTVSS | high polyreactivity
32 | QVQLVESGGGLVQAGGSLRLSCAASGRIFNQYGMGWYRQAPGKERELVAAIRSGDSTNYADSVKGRFTISRDNAKNTVYLQMNSLKPEDTAVYYCARDFSPGSSDPKASISFDHWGQGTQVTVSS | low polyreactivity
33 | QVQLVESGGGLVQAGGSLRLSCAASGFIFEHYAMGWYRQAPGKERELVAAISRTGGRTYYADSVKGRFTISRDNAKNTVYLQMNSLKPEDTAVYYCAATAYSRLGVSSDYWGQGTQVTVSS | high polyreactivity
34 | QVQLVESGGGLVQAGGSLRLSCAASGSIFVIYAMGWYRQAPGKERELVAAITSGGNTTYADSVKGRFTISRDNAKNTVYLQMNSLKPEDTAVYYCAAYSYYTGDQYSYDYWGQGTQVTVSS | low polyreactivity
35 | QVQLVESGGGLVQAGGSLRLSCGASGITFVRYAMGWYRQAPGKERELVAAITTSGGSTYYADSVKGRFTISRDNAKNTVYLQMNSLKPEDTAVYYCAARANAASGTFKYWGQGTQVTVSS | high polyreactivity
36 | QVQLVESGGGLVQAGGSLRLSCAASGSIFRYYAMGWYRQAPGKERELVATITFNGGNTYYADSVKGRFTISRDNAKNTVYLQMNSLKPEDTAVYYCAATYVRRGPTRYYYWGQGTQVTVSS | high polyreactivity
37 | QVQLVESGGGLVQAGGSLRLSCAASGRIFTANAMGCYIQAPGKERELVAAISWRGGSTYYADSVKGRFTISRDNAKNTVYLQMNSLKPEDTAVYYCNKVGATWRQWFGYWGQGTQVTVSS | high polyreactivity
38 | QVQLVESGGGLVQAGGSLRLSSAASGSIFVHYAMGWYRQAPGKEREFVAAISRGGGTTYYADSVKGRFTISRDNAKNTVYLQLNCLKPEDNAVYYCNAVRFFEHDYWGQGTQVTVSS | high polyreactivity
39 | QVQLVESGGGLVQAGGSLRVSCAASGSTFGYYAMGWYREAPGKEREFVAAINYGDGNTYYADSVKGRFTISRDNAKNTVYLQMNRLKPEDTAVYYCATYYWAPTGAHGGYGYWVQGTQVTVSS | low polyreactivity
40 | QVQLVESGGGLVQAGGSLRLSCAASGDIFSRYMGWYRQAPGKERELVAAITRGGVSTYYADSVKGRFTISRDNAKNTVYLQMNSLKPEDTAVYYCATGRPVYYVASYDYDYWGQGTQVTVSS | low polyreactivity
41 | QVQLVESGGGLVQAGGSLRLSCAASGIILSPYAMGWYRQAPGKERELVAAISRSGGSTYYADSVKGRFTISRDNAKNTVYLQMNSLKPEDTAVYYCAAEYYGYWEYDYWGQGTQVTVSS | high polyreactivity
42 | QVQLVESGGGLVQAGGSLRLSCAASGRTFSWNTMGWYRQAPGKERELVAAITRVGTTYYADSVKGRFTISRDNAKNTVYLQMNSLKPEDTGVYYCNARKVRYPYRWYDYWGQGTQVTVSS | high polyreactivity
43 | QVQLVESRGGIVQAGGSLRLSCAASGRIFQYYAKGWYRQAPGKEWELVAAIISSGGRTYYADSVKGRFTISRDNAKKTVYVQMNSLKPEDTAVYYCNAVLSTRGMDFWGQGTQVTVSS | high polyreactivity
